The text below walks through data of patent US12383631B2, “Immune antigen specific IL-18 immunocytokines and uses thereof” (Bright Peak Therapeutics AG, priority 2022, dated 2025).

The target of assay [1] is T1, human IL-18 binding protein isoform a (IL-18BPa) (Homo sapiens, UniProt O95998).
T1 sequence (O95998 31-194): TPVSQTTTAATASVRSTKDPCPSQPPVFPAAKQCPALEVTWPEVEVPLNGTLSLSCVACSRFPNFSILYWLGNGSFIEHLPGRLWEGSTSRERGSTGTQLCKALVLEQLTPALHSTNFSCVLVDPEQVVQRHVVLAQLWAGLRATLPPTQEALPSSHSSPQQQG
Nature of the assay: Cellular IL-18 Binding protein resistance assay in NK-92 cells (Example 13). The format is cell-based. As to conditions: NK92 cells, IL-18 analyte 1 nM final, IL-18BPa titrated, 1 ng/ml IL-12; read-out: IC50 IL-18BP-mediated inhibition of IFNγ secretion. The protocol:
The NK cell line NK-92 derived from a patient with lymphoma (ATCC, Cat #CRL-2407) was cultured in aMEM medium supplemented with 20% FCS-Glutamax, 25 μM B-mercaptoEthanol, and 100 IU/ml of recombinant Human Interleukin-2 (TL-2). On the day of experiment, cells were harvested and washed with aMEM medium without IL-2. After counting, cells were seeded at 100 000 cells/well in a 384 well titer plate and incubated at 37° C./5% CO2. Sixteen 2-fold serial dilutions of Fc fused human IL-18 binding protein isoform a (IL-18BPa; R&D systems, Cat #119-BP) were prepared in aMEM medium-1 ng/ml IL-12 containing 2 nM of each IL-18 variants and were added to the NK-92 cells. Final IL-18 analytes concentration was 1 nM and final IL-18BPa concentrations ranged from to 566 nM down to 17 pM.
After 16-20 h incubation at 37° C./5% CO2, 5 μl of supernatant were carefully transferred to a 384 microwells OPTIplate (Perkin Elmer; Cat #6007270) and Interferon-gamma (IFNγ) levels measured using the Human IFNγ AlphaLISA Assay Kit (Perkin Elmer, Cat #AL217C). Briefly, 10 μl of 2.5× AlphaLISA Anti-IFNγ acceptor beads and biotinylated Antibody Anti-IFNγ mix were added to the 5 μl of NK-92 supernatants and incubated for 1 h at room temperature under shaking. Under subdued light, 2.5 μl of 2× streptavidin (SA) donor beads were pipetted in each well and incubated for 30 min at room temperature under shaking. AlphaLisa signal was then measured on an Enspire plate reader (Perkin Elmer) using 680 and 615 nm as excitation and emission wavelengths respectively. Half maximal inhibitory concentration (IC50) was calculated based on a variable slope, four parameter analysis using GraphPad PRISM software.

Assay [2] concerns PD-1 positive (transduced) KG-1 cells. Nature of the assay: IFN gamma secretion assay in PD-1 transduced KG-1 cells (Example 11). It counts as cell-based, human. Conditions: IFNγ secretion, PD-1 transduced KG-1 cells, 20-24 h. The protocol: The KG-1 cell line was used to generate a PD-1 expressing cell line and furthermore, to measure IFNγ release upon incubation with TL-18 variants and corresponding TL-18 immunocytokines.
PD-1 expressing cell line generation: Briefly, KG-1 cells were transduced using lentiviral particles carrying the human PD-1 gene (PDCD1 NM_005018; Origene, CAT #: RC210364L3V) at a MOI (Multiplicity of Infection) of 30. Spinfection was performed at 1260 g during 90 min at 37° C. in the presence of 5 μg/ml of Polybrene and 10 mM of HEPES in complete culture media (RPMI, 10% FBS, 1% L-Glutamine). Five days after transduction, puromycin at a final concentration of 1 μg/ml was added to select for PD-1 positive cells. For culture maintenance, puromycin concentration was decreased to 0.5 μg/ml. Stable and homogenous expression of PD-1 was verified by surface staining (BD Pharmingen, #557860).
IFNγ release was assessed in PD-1 positive (transduced) KG-1 cells, as well as in the parental PD-1 negative cells. 0.5×10^5 cells were seeded into a 96-well U-bottom plate in culture media (RPMI, 10% FBS, […]) and stimulated with IL-18 variants/ICs for 20-24 h. The test items were diluted to 100 nM in culture medium, followed by 7 10-fold serial dilutions. The lowest concentration assessed was […]. After incubation, IFNγ release was measured using the LEGENDplex custom human mix and match KIT (Biolegend LEGENDplex™ Human IFN-γ Capture Bead B5, 13×#740942, LEGENDplex™ P 1 Essential Immune Response Panel Detection Abs, #740931, LEGENDplex™ Buffer Set A #740368). To this end, cell culture supernatant was collected and diluted 1:1 with Assay Buffer. Fluorescence measurements were done with a Quanteon Flow Cytometer from Acea Biosciences. For analysis, MFI values (median fluorescence intensity) were exported and plotted against concentrations used. The EC50 values (half maximal effective concentration) were calculated based on a variable slope and four parameter analysis using GraphPad PRISM software version 9.

Usually IC50 stands for the concentration that inhibits the measured activity by half. Usually EC50 stands for the concentration giving half of the maximal effect. High values mean a need for much substance, low ones an effect from little substance. As to “Composition B: immunocytokine: Atezolizumab/Tecentriq (anti-PD-L1) conjugated to IL-18 polypeptide SEQ ID NO: 30”, the IC50 in assay [1] was more than 1000 nM. Also, in assay [2], it took 3.6 pM to reach a half-maximal effect (EC50).
